Laboratory results published in patent publication US20130225478A1 (YEDA RESEARCH AND DEVELOPMENT, published 2013).
Ends that are not written are not given here.

Tests used:
mTLR1 TM C′-CtoA = target: T1, mTLR1 TM C′-CtoA (mouse, N-terminal fluorescein (FRET donor) or N-terminal rhodamine (TAMRA) label, depending on the assay; synthesized on Rink amide MBHA resin); experiment: FRET in PC:Cholesterol LUVs, fluorescein-mTLR1 TM C′-CtoA donor, rhodamine-Cp acceptor (FIG. 2A)
T1 construct: Synthetic peptide; Tested in PC:Cholesterol LUVs or HEPES buffer; also called mTLR1 C′ TM (C to A); TLR1 TM C-terminus peptide
T1 peptide: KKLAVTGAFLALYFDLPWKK
Source text: FIGS. 2A-2C show fluorescence resonance energy transfer (FRET) between mTLR1 TM C′-CtoA (SEQ ID NO:83) and other TM peptides. mTLR1 TM C′ peptide was labeled with fluorescein (Donor) and loaded on PC:Cholesterol large unilamellar vesicles (LUVs). Changes in the intensity of the emission signal were monitored between 500 to 600 nm, upon the addition of successive amounts of rhodamine labeled mTLR1 TM C′-CtoA (SEQ ID NO:83; homodimers, 2B) and mTLR2 TM C′-CtoA (SEQ ID NO:86; heterodimers, 2C). Rhodamine labeled TCRα TM domain peptide (Cp; […]-NH2, SEQ ID NO:123) was used as a negative control (2A).
(§1) Large unilamellar vesicles (LUVs) composed of phosphatidylcholine (PC) and cholesterol (10:1, w/w), were prepared using the extrusion method as described previously (Cohen et al, 2008). The fluorescence experiments were performed with pairs of peptides using fluorescein labeled peptides as donors and rhodamine labeled peptides as acceptors. Fluorescence spectra were obtained at room temperature, with excitation set at 494 nm (10 nm slit) and emission scan at 500-600 nm (10 nm slits), by a Cary eclipse fluorescence spectrophotometer (Varian Inc., Palo Alto, Calif.). […] Fluorescence spectra were obtained before and after the addition of the rhodamine labeled peptides. Fluorescence values were corrected by subtracting the changes in emission obtained by adding HEPES only. […]

mTLR1 TM N′ = target: T2, mTLR1 TM N′ (mouse, N-terminal fluorescein (FRET donor) or N-terminal rhodamine (TAMRA) label, depending on the assay; synthesized on Rink amide MBHA resin); experiment: FRET in PC:Cholesterol LUVs, fluorescein-mTLR1 TM N′ donor, rhodamine-Cp acceptor (FIG. 3A)
T2 construct: Synthetic peptide; Tested in PC:Cholesterol LUVs or HEPES buffer; also called mTLR1 N′ TM; TLR1 TM N-terminus peptide
T2 peptide: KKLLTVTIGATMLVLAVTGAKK
Source text: FIGS. 3A-3C show FRET between mTLR1 TM N′ (SEQ ID NO:77) and other TM peptides. mTLR1 TM N′ peptide labeled with fluorescein (donor) and loaded on PC:Cholesterol LUVs. Changes in the intensity of the emission signal were monitored between 500 to 600 nm, upon the addition of successive amounts of rhodamine labeled mTLR1 TM N′ (SEQ ID NO:77; homodimers, 3B) and mTLR2 TM N′-CtoA (SEQ ID NO:88; heterodimers, 3C). Rhodamine labeled TCRα TM domain peptide (Cp; […]-NH2, SEQ ID NO:123) was used as a negative control (3A).
as §1

[1] = target: the molecule itself; experiment: self-assembly assay, rhodamine dequenching after proteinase K, PC:Cholesterol LUVs (FIG. 7D)
Method: (7A-7B) Rhodamine conjugated TLR peptides mTLR2 TM N′-CtoA (SEQ ID NO:88), mTLR2 TM C′-CtoA (SEQ ID NO:86), mTLR1 TM N′ (SEQ ID NO:77) and mTLR1 TM C′-CtoA (SEQ ID NO:83), were added to HEPES solution and their emission at 585 nm was recorded before and after the addition of proteinase K. The addition of the proteinase K is indicated by a black arrow. mTLR1 TM C′-CtoA (SEQ ID NO:83), mTLR1 TM N′ (SEQ ID NO:77) and mTLR2 TM C′-CtoA (SEQ ID NO:86) are capable to self assemble in solution, to a very slight extent (7A). mTLR2 TM N′-CtoA (SEQ ID NO:88) highly oligomerise in solution (black line, 7B) and is partially dissociated in the presence of LUVs (gray line, 7B). […] LL37 is shown as an example for a peptide that is highly oligomerised in liposomes (7D).
We have tested this characteristic, both in solution and on a membrane interface. We measured the initial emission of rhodamine labeled peptides at 580 nm in solution only, or in a solution containing PC:Cholesterol LUVs, and then followed the increase of the emission over time after the addition of protease-K to the medium. […] The known oligomeric antimicrobial peptide LL37 (Rosenfeld et al., 2006a) was used as a positive control.

B1: Cp, the core TM peptide of TCRα (peptide)
peptide: GLRILLLKV-NH2
modifications: also: rhodamine label
notes: Negative control in the FRET experiments; also called TCRα TM domain peptide
- binding result (mTLR1 TM C′-CtoA): no binding
- binding result (mTLR1 TM N′): no binding

B2: LL37 (peptide, UniProt P49913 134-170, looked up)
peptide: LLGDFFRKSKEKIGKEFKRIVQRIKDFLRNLVPRTES
modifications: also: rhodamine label
notes: Positive control of the self-assembly assay; LL-37 is the C-terminal 37 residues of the cathelicidin precursor; also called oligomeric antimicrobial peptide LL37
- binding result [1]: binds
